{"source": "patent US20260042827A1", "about": "“ANTI-WT1 ANTIGEN-BINDING PROTEINS AND USES THEREOF” (UNIVERSITY HEALTH NETWORK, priority 2022, published 2026)", "molecules": {"B1": {"name": "5H2: mouse WT1-specific mAb raised against WT1330-348 peptide; VH SEQ ID NO: 37, VL SEQ ID NO: 38 (antibody, V domains shown)", "VH": "EVQLQQSGAELVRPGALVKLSCKASGFNIKDYYMHWVKQRPEQGLEWIGWIDPENGNTIYDPKFQGKASITADTSSNTAYLQLSSLTSGDTAVYYCTRDGYYMVFAYWGQGTLVTVSA", "VL": "DIQMTQSPSSLSASLGGKVTITCKASQDINKCIAWYKHKPGKGPRLLIHYTSILQPGIPSRFSGSGSGRDYSFSISNLEPEDIATYYCLQYDNLYTFGGGTKLEIK", "modifications": "5H2 - VH; 5H2 - VL"}}, "test_system": "WT1 peptide presented by HLA-DP molecules on K562 transfectants", "test": "Flow cytometric staining of K562 transfectants with WT1-specific mAb", "type": "cell-based, human", "conditions": "flow cytometry; for recognition of naturally processed WT1 peptide on K562/DP cells: K562/DP2 and K562/DP4, endogenous or ectopic WT1; for recognition of exogenously-pulsed WT1 peptide presented by DP molecules: K562 transfectants pulsed with WT1 peptide", "method": "FIGS. 5A-5S present data showing that WT1-specific mAbs bind to WTT peptide presented by HLA-DP molecules. FIGS. 5A-5B show binding of B7/21 (an anti-HLA-DP mAb) or WT1-specific mAbs to immobilized WT1 peptide or DP4/WT1 monomers as assessed by ELISA. m Abs were added to ELISA plate coated with WT1330-348 or CLIP (control) (FIG. 5A). mAbs were added to ELISA plate coated with DP4/WT1330-348 monomers or DP4/CLIP monomers (control) (FIG. 5B). The data shown represent the mean±SD of experiments performed in triplicates. Results are representative of two independent experiments. ns, not significant, *p<0.05, **p<0.01, ***p<0.001, ****p<0.0001 by two-way ANOVA with Bonferroni correction. […] Interaction strength was measured by a BLI binding assay. FIGS. 5F-5K show the indicated K562 transfectants pulsed with WT1330-348 or CLIP (control) and stained with WT1-specific mAb, 5H2, followed by PE-conjugated anti-mouse secondary Ab and flow cytometric analysis. FIGS. 5L-5S show the indicated K562 transfectants stained with WT1-specific mAb, 5H2, or isotype control mAb, followed by PE-conjugated anti-mouse secondary Ab and flow cytometric analysis.\nFor surface staining, cells were pelleted and resuspended in a mAb master mix diluted in a PBS/2% FBS buffer. Cells were incubated at 4° C. for 15 minutes and washed prior to analysis. Monoclonal antibodies recognizing the following targets were used for surface staining: CD4 (300505, 1:40, BioLegend), CD8 (301007, 1:100, BioLegend), pan HLA class II (361703, 1:100, BioLegend), NGFR (345131, 1:40, BioLegend), CD25 (301007, 1:100, BioLegend), CD62L (304805, 1:25, BioLegend), CD45RA (304111, 1:10, BioLegend), PD-1 (329905, 1:40, BioLegend), Tim-3 (345007, 1:20, BioLegend). Mouse isotype controls were purchased from BioLegend. Biotinylated Protein-L was purchased from GenScript. For intracellular cytokine staining, TCR or CAR-T cells were stimulated with indicated target cells at an E:T ratio of 1:1. Brefeldin A (BioLegend) was added to the culture media after 2 hours, and the cells were further cultured for 4 hours. Following the surface marker staining, the cells were fixed and permeabilized using the Cytofix/Cytoperm Kit (BD Biosciences) and stained with FITC-anti-IL-2 (500305, 1:20, BioLegend), APC-anti-TNF-α (502913, 1:100, BioLegend), and PE-Cy7-anti-IFN-7 (506517, 1:200, BioLegend). The frequency of cytokine-producing cells within the CD8^+ or CD4^+ T cell population was determined by flow cytometric analysis. For intracellular WT1 staining, cells were fixed and permeabilized using the Cytofix/Cytoperm Kit (BD Biosciences) and stained with mouse anti-WT1 mAb (NB110-60011SS, 1:200, Novus Biologicals), followed by BV421-anti-mouse IgG (405317, 1:20, BioLegend). […]", "data": [{"molecule": "B1", "values": [{"measurement": "recognition of naturally processed WT1 peptide on K562/DP cells", "value": "can bind to K562/DP2 and K562/DP4 cells which express endogenous WT1"}, {"measurement": "recognition of naturally processed WT1 peptide on K562/DP cells", "setting": "listed as WT1-specific mAb", "value": "can recognize naturally processed WT1 peptide presented by HLA-DP2"}, {"measurement": "recognition of exogenously-pulsed WT1 peptide presented by DP molecules", "value": "can recognize exogenously-pulsed WT1330-348 presented by multiple DP molecules such as DP2 and DP5 in addition to DP4"}, {"measurement": "recognition of exogenously-pulsed WT1 peptide presented by DP molecules", "setting": "listed as WT1-specific mAb", "value": "can recognize exogenously-pulsed WT1328-348 peptide presented by different HLA-DP molecules"}]}]}
